The values that follow come from publication PMC6997208, “Conversion of walnut tyrosinase into a catechol oxidase by site directed mutagenesis” (Scientific Reports, 2020).

What all share (experiment): spectrophotometric quinone formation
Holding throughout (format): biochemical, Juglans regia

Substrate in data set [1]: N[C@@H](Cc1ccc(O)c(O)c1)C(=O)O
As to conditions: 50 mM sodium phosphate pH 6.0, 2 mM SDS as activator, 25 °C, diphenolase. An excerpt:
(§1) spectrophotometric quinone formation on jrPPO1-wt

Substrate in data set [2]: NCCc1ccc(O)cc1
As to conditions: 50 mM sodium phosphate pH 6.0, 2 mM SDS as activator, 25 °C, monophenolase.
Source text: as §1

Substrate in data set [3]: NCCc1ccc(O)c(O)c1
As to conditions: 50 mM sodium phosphate pH 6.0, 2 mM SDS as activator, 25 °C, diphenolase.
Source text: as §1

Substrate in data set [4]: N[C@@H](Cc1ccc(O)cc1)C(=O)O
As to conditions: 50 mM sodium phosphate pH 6.0, 2 mM SDS as activator, 25 °C, monophenolase.
Source text: as §1

B1: jrPPO1-wt (Juglans regia; V207I) (protein)
chain: DPVSAPELTLCSEADLPAGALPVNCCPPTSKKIKDFVLPSQNTPLRVRPAAHLVDNDYIAKYNKGIELMKSLPADDPRSFTQQANVHCAYCDGAYTQVGFPDLSLQIHECWLFFPFHRYYVYFFEKILGKLIGDPTFALPFWNWDSPPGMQLPSLYAVSNSAIYDPLRNANHQPPTIIDLDYGETSESTTTTDQVPSNLKIMYRQMVSGAKNPTLFFGSPYRAGDEPDPGAGTIESTPHNNIHLWTGDDTQPNIENMGNFYSAGRDPIFFAHHSNVDRMWTIWKTLGGKRKDITDPDWLNSSFFFYDENADPVRVKVKDCVDNTKLRYVYQDVEIPWLKTKPTPRKSRVKKVAKAFPAGHGGVAQAAETSSVKFPIVLDKVISTVVARPKKSRSKKEKDDEEEVLVIEGIEVERDIPVKFDVFINDEDDAPTGPGINTEFAGSFVSVPQQKQTKKKKTYLRIGISDLLEDLGAEDDDSVVVTLVPRFGKGKAIIGGIKIVLIG
notes: latent pro-enzyme (active domain + C-terminal domain) without transit peptide; E. coli BL21(DE3), pGEX-6P-1, N-terminal GST tag cut with HRV-3C protease; cloned from walnut leaf cDNA, Val107Ile versus FJ769240.1
What is called Km is the concentration of substrate that gives half-maximal velocity. Broadly, the kcat is the number of substrate molecules converted per active site and unit of time at saturation. The kcat/Km is the second-order rate constant that governs catalysis at low substrate concentration. For B1, the Km was 6.2 ± 1.0 mM in data set [1], 0.451 ± 0.084 mM in data set [2], 0.75 ± 0.13 mM in data set [3] and 1.42 ± 0.37 mM in data set [4]. In addition, the kcat was determined as 111 ± 8.8 s⁻¹ in data set [1], 24.7 ± 1.5 s⁻¹ in data set [2], 92.5 ± 7.8 s⁻¹ in data set [3] and 6 ± 1.1 s⁻¹ in data set [4]. The kcat/Km worked out at 18100 ± 3400 M⁻¹ s⁻¹ in data set [1], 55000 ± 11000 M⁻¹ s⁻¹ in data set [2], 123000 ± 24000 M⁻¹ s⁻¹ in data set [3] and 4300 ± 1400 M⁻¹ s⁻¹ in data set [4].

B2: jrPPO1-wt (Juglans regia; L344R/V307I) (protein)
chain: DPVSAPELTLCSEADLPAGALPVNCCPPTSKKIKDFVLPSQNTPLRVRPAAHLVDNDYIAKYNKGIELMKSLPADDPRSFTQQANVHCAYCDGAYTQVGFPDLSLQVHECWLFFPFHRYYVYFFEKILGKLIGDPTFALPFWNWDSPPGMQLPSLYAVSNSAIYDPLRNANHQPPTIIDLDYGETSESTTTTDQVPSNLKIMYRQMISGAKNPTLFFGSPYRAGDEPDPGAGTIESTPHNNIHRWTGDDTQPNIENMGNFYSAGRDPIFFAHHSNVDRMWTIWKTLGGKRKDITDPDWLNSSFFFYDENADPVRVKVKDCVDNTKLRYVYQDVEIPWLKTKPTPRKSRVKKVAKAFPAGHGGVAQAAETSSVKFPIVLDKVISTVVARPKKSRSKKEKDDEEEVLVIEGIEVERDIPVKFDVFINDEDDAPTGPGINTEFAGSFVSVPQQKQTKKKKTYLRIGISDLLEDLGAEDDDSVVVTLVPRFGKGKAIIGGIKIVLIG
notes: as for B1
With B2, in data set [2], the Km came out at 2.68 ± 0.53 mM, the kcat was 1.62 ± 0.09 s⁻¹ and the kcat/Km was determined as 600 ± 120 M⁻¹ s⁻¹. For the same protein, in data set [3], the Km worked out at 2.36 ± 0.41 mM, the kcat turned out to be 24.9 ± 1.6 s⁻¹ and the kcat/Km came to 10600 ± 2000 M⁻¹ s⁻¹.

B3: jrPPO1-wt (Juglans regia; L344R/N340K/V307I) (protein)
chain: DPVSAPELTLCSEADLPAGALPVNCCPPTSKKIKDFVLPSQNTPLRVRPAAHLVDNDYIAKYNKGIELMKSLPADDPRSFTQQANVHCAYCDGAYTQVGFPDLSLQVHECWLFFPFHRYYVYFFEKILGKLIGDPTFALPFWNWDSPPGMQLPSLYAVSNSAIYDPLRNANHQPPTIIDLDYGETSESTTTTDQVPSNLKIMYRQMISGAKNPTLFFGSPYRAGDEPDPGAGTIESTPHKNIHRWTGDDTQPNIENMGNFYSAGRDPIFFAHHSNVDRMWTIWKTLGGKRKDITDPDWLNSSFFFYDENADPVRVKVKDCVDNTKLRYVYQDVEIPWLKTKPTPRKSRVKKVAKAFPAGHGGVAQAAETSSVKFPIVLDKVISTVVARPKKSRSKKEKDDEEEVLVIEGIEVERDIPVKFDVFINDEDDAPTGPGINTEFAGSFVSVPQQKQTKKKKTYLRIGISDLLEDLGAEDDDSVVVTLVPRFGKGKAIIGGIKIVLIG
notes: as for B1
B3: in data set [1], the Km amounted to 16.5 ± 4.8 mM, the kcat was determined as 0.104 ± 0.019 s⁻¹ and the kcat/Km came to 6 ± 2.1 M⁻¹ s⁻¹. For the same protein, in data set [3], the Km is 6.8 ± 1.3 mM, the kcat came out at 0.029 ± 0.002 s⁻¹ and the kcat/Km is 4.28 ± 0.85 M⁻¹ s⁻¹.

B4: jrPPO1-wt (Juglans regia; N340K/V307I) (protein)
chain: DPVSAPELTLCSEADLPAGALPVNCCPPTSKKIKDFVLPSQNTPLRVRPAAHLVDNDYIAKYNKGIELMKSLPADDPRSFTQQANVHCAYCDGAYTQVGFPDLSLQVHECWLFFPFHRYYVYFFEKILGKLIGDPTFALPFWNWDSPPGMQLPSLYAVSNSAIYDPLRNANHQPPTIIDLDYGETSESTTTTDQVPSNLKIMYRQMISGAKNPTLFFGSPYRAGDEPDPGAGTIESTPHKNIHLWTGDDTQPNIENMGNFYSAGRDPIFFAHHSNVDRMWTIWKTLGGKRKDITDPDWLNSSFFFYDENADPVRVKVKDCVDNTKLRYVYQDVEIPWLKTKPTPRKSRVKKVAKAFPAGHGGVAQAAETSSVKFPIVLDKVISTVVARPKKSRSKKEKDDEEEVLVIEGIEVERDIPVKFDVFINDEDDAPTGPGINTEFAGSFVSVPQQKQTKKKKTYLRIGISDLLEDLGAEDDDSVVVTLVPRFGKGKAIIGGIKIVLIG
notes: as for B1
Take B4: in data set [2], the Km was 8.2 ± 1.4 mM, the kcat came to 0.0542 ± 0.0034 s⁻¹ and the kcat/Km came out at 6.6 ± 1.2 M⁻¹ s⁻¹. Moreover, in data set [3], the Km is 19.8 ± 4.7 mM, the kcat was found to be 2.51 ± 0.4 s⁻¹ and the kcat/Km was found to be 132 ± 97 M⁻¹ s⁻¹.

B5: jrPPO1-wt (Juglans regia; L344R/N340T/V307I) (protein)
chain: DPVSAPELTLCSEADLPAGALPVNCCPPTSKKIKDFVLPSQNTPLRVRPAAHLVDNDYIAKYNKGIELMKSLPADDPRSFTQQANVHCAYCDGAYTQVGFPDLSLQVHECWLFFPFHRYYVYFFEKILGKLIGDPTFALPFWNWDSPPGMQLPSLYAVSNSAIYDPLRNANHQPPTIIDLDYGETSESTTTTDQVPSNLKIMYRQMISGAKNPTLFFGSPYRAGDEPDPGAGTIESTPHTNIHRWTGDDTQPNIENMGNFYSAGRDPIFFAHHSNVDRMWTIWKTLGGKRKDITDPDWLNSSFFFYDENADPVRVKVKDCVDNTKLRYVYQDVEIPWLKTKPTPRKSRVKKVAKAFPAGHGGVAQAAETSSVKFPIVLDKVISTVVARPKKSRSKKEKDDEEEVLVIEGIEVERDIPVKFDVFINDEDDAPTGPGINTEFAGSFVSVPQQKQTKKKKTYLRIGISDLLEDLGAEDDDSVVVTLVPRFGKGKAIIGGIKIVLIG
notes: as for B1
With B5, in data set [1], the Km turned out to be 13.1 ± 3.3 mM, the kcat was determined as 0.18 ± 0.027 s⁻¹ and the kcat/Km came out at 12.9 ± 4 M⁻¹ s⁻¹. In data set [3], the Km came out at 6.6 ± 1.5 mM, the kcat amounted to 0.789 ± 0.079 s⁻¹ and the kcat/Km came out at 122 ± 26 M⁻¹ s⁻¹.

B6: jrPPO1-wt (Juglans regia; F360G/V307I) (protein)
chain: DPVSAPELTLCSEADLPAGALPVNCCPPTSKKIKDFVLPSQNTPLRVRPAAHLVDNDYIAKYNKGIELMKSLPADDPRSFTQQANVHCAYCDGAYTQVGFPDLSLQVHECWLFFPFHRYYVYFFEKILGKLIGDPTFALPFWNWDSPPGMQLPSLYAVSNSAIYDPLRNANHQPPTIIDLDYGETSESTTTTDQVPSNLKIMYRQMISGAKNPTLFFGSPYRAGDEPDPGAGTIESTPHNNIHLWTGDDTQPNIENMGNGYSAGRDPIFFAHHSNVDRMWTIWKTLGGKRKDITDPDWLNSSFFFYDENADPVRVKVKDCVDNTKLRYVYQDVEIPWLKTKPTPRKSRVKKVAKAFPAGHGGVAQAAETSSVKFPIVLDKVISTVVARPKKSRSKKEKDDEEEVLVIEGIEVERDIPVKFDVFINDEDDAPTGPGINTEFAGSFVSVPQQKQTKKKKTYLRIGISDLLEDLGAEDDDSVVVTLVPRFGKGKAIIGGIKIVLIG
notes: as for B1
Take B6: in data set [2], the Km came out at 3.05 ± 0.72 mM, the kcat came out at 0.323 ± 0.025 s⁻¹ and the kcat/Km was determined as 103 ± 26 M⁻¹ s⁻¹. In data set [3], the Km was determined as 1.2 ± 0.4 mM, the kcat was found to be 7.36 ± 0.98 s⁻¹ and the kcat/Km was found to be 5900 ± 2200 M⁻¹ s⁻¹.
